From paper PMC6893557 (2019)

Molecular target: pYEEI
Test: SPR

B1: Hck SH2 (protein)
chain: WFFKGISRKDAERQLLAPGNMLGSFMIRDSETTKGSYSLSVRDYDPRQGDTVKHYKIRTLDNGGFYISPRSTFSTLQELVDHYKKGNDGLCQKLSVPC
Kd: 42 µM
